# Measurements from the supplement of paper PMC7877785.
# ± gives the uncertainty stated by the source.
# Test: self-splicing fitness, log relative to wild type (ln ratio); higher = more splicing; Tetrahymena group I intron in knt gene, E. coli kanamycin selection, DiMSum; sequences stand for … in CUCUCU…GGAGGGAAAAGUUAUCAGGCAUGCACCUGGUAGCUAGUCUUUAAACCAAUAGAUUGCAUCGGUUUAAAAGGCAAGACCGUCAAAUUGCGGGAAAGGGGUCAACAGCCGUUCAGUACCAAGUCUCAGGGGAAACUUUGAGAUGGCCUUGCAAAGGGUAUGGUAAUAAGCUGACGGACAUGGUCCUAACCACGCAGCCAAGUCCUAAGUCAACAGAUCUUCUGUUGAUAUGGAUGCAGUUCACAGACUAAAUGUCGGUCGGGGAAGAUGUAUUCUUCUCAUAAGAUAUAGUCGGACCUCUCCUUAAUGGGAGCUAGCGGAUGAAGUGAUGCAACACUGGAGCCGCUGGGAACUAAUUUGUAUGCGAAAGUAUAUUGAUUAGUUUUGGAGUACUCGUGGUCG
# In short: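 DiMSum derived fitness as the error-weighted combination of fold changes across replicates, kanamycin versus no kanamycin, normalised to wild type. E. coli BL21(DE3) held the library, which randomised all eight P1ex-region intron nucleotides within the knt kanamycin-resistance gene on pET-22b(+). Six replicate transformations grew overnight at 37°C or 30°C on LB agar with or without 25 μg/mL kanamycin, also containing 100 μg/mL carbenicillin, 50 μM IPTG and 0.2% rhamnose, and pooled colonies were amplicon-sequenced on an Illumina HiSeq 2500.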
Sequence,self-splicing fitness (ln) (30 °C),self-splicing fitness (ln) (37 °C)
GUUCAGCAAUAUUACGGGUA,-2.23 ± 0.12,-0.474 ± 0.097
GUUCAGCAAUAUUACGGGUG,-1.49 ± 0.09,-0.763 ± 0.089
GUUCAGCAAUAUUACGGUCU,-0.136 ± 0.047,0.327 ± 0.063
GUUCAGCAAUAUUACGUAGA,-0.546 ± 0.1,-0.394 ± 0.1
GUUCAGCAAUAUUACGUUAU,-0.292 ± 0.077,-0.207 ± 0.099
GUUCAGCAAUAUUACGUUCG,-0.684 ± 0.067,0.137 ± 0.1
GUUGAGCAAUAUUACGAAGG,-3.35 ± 0.41,-2.68 ± 0.4
GUUGAGCAAUAUUACGAGGA,-2.48 ± 0.45,
GUUGAGCAAUAUUACGAUGA,,-2.27 ± 0.42
GUUGAGCAAUAUUACGCACG,-3.13 ± 0.43,
GUUGAGCAAUAUUACGCCGU,-2.98 ± 0.23,-0.768 ± 0.16
GUUGAGCAAUAUUACGCGAA,-3.43 ± 0.46,-1.9 ± 0.43
GUUGAGCAAUAUUACGCGUC,-1.59 ± 0.27,-0.951 ± 0.34
GUUGAGCAAUAUUACGCUAC,-1.28 ± 0.49,
GUUGAGCAAUAUUACGCUAU,-2.06 ± 0.35,-2.66 ± 0.46
GUUGAGCAAUAUUACGCUUG,-2.79 ± 0.22,-2.15 ± 0.27
GUUGAGCAAUAUUACGGCCU,-2.03 ± 0.18,-0.897 ± 0.2
GUUGAGCAAUAUUACGGGCG,-2.38 ± 0.18,-1.58 ± 0.25
GUUGAGCAAUAUUACGGUAA,-2.51 ± 0.27,-2.49 ± 0.35
GUUGAGCAAUAUUACGGUAC,-3.45 ± 0.34,-1.79 ± 0.38
GUUGAGCAAUAUUACGUACC,-1.75 ± 0.36,
GUUGAGCAAUAUUACGUCGC,-2.1 ± 0.35,-1.17 ± 0.29
GUUGAGCAAUAUUACGUGGC,-3.09 ± 0.25,-2.17 ± 0.28
GUUUAGCAAUAUUACGAGUG,-3.74 ± 0.17,-0.634 ± 0.11
GUUUAGCAAUAUUACGAGUU,-4.25 ± 0.29,-2.3 ± 0.14

Sequence,self-splicing fitness (ln) (30 °C),self-splicing fitness (ln) (37 °C)
GUUUAGCAAUAUUACGAUGU,-1.16 ± 0.11,-0.261 ± 0.14
GUUUAGCAAUAUUACGAUUU,-0.709 ± 0.068,0.111 ± 0.096
GUUUAGCAAUAUUACGCAUU,-1.53 ± 0.11,-0.487 ± 0.12
GUUUAGCAAUAUUACGCCGU,-2.03 ± 0.13,-0.93 ± 0.14
GUUUAGCAAUAUUACGCUGA,-3.66 ± 0.33,-1.6 ± 0.23
GUUUAGCAAUAUUACGCUUC,,-1.36 ± 0.43
GUUUAGCAAUAUUACGCUUG,-1.18 ± 0.099,0.632 ± 0.15
GUUUAGCAAUAUUACGGAGU,-2.3 ± 0.13,-1.63 ± 0.12
GUUUAGCAAUAUUACGGCGA,-0.198 ± 0.23,-0.0729 ± 0.19
GUUUAGCAAUAUUACGUCAA,-2.3 ± 0.18,-0.778 ± 0.16
GUUUAGCAAUAUUACGUCAU,-0.998 ± 0.069,-0.817 ± 0.099
GUUUAGCAAUAUUACGUCCG,-2.86 ± 0.2,-1.89 ± 0.29
GUUUAGCAAUAUUACGUCGA,-1.43 ± 0.28,-0.62 ± 0.28
GUUUAGCAAUAUUACGUCUC,-0.593 ± 0.19,0.43 ± 0.24
GUUUAGCAAUAUUACGUGGC,-0.884 ± 0.32,-1.46 ± 0.33
GUUUAGCAAUAUUACGUGUG,-2.08 ± 0.11,-1.36 ± 0.11
UAAAAGCAAUAUUACGAAAU,-3.04 ± 0.16,-2.45 ± 0.21
UAAAAGCAAUAUUACGAACU,-0.332 ± 0.23,-0.647 ± 0.2
UAAAAGCAAUAUUACGACAU,-1.09 ± 0.012,-0.402 ± 0.032
UAAAAGCAAUAUUACGACCA,-0.143 ± 0.092,0.711 ± 0.13
UAAAAGCAAUAUUACGAGAC,-2.39 ± 0.28,-2.29 ± 0.26
UAAAAGCAAUAUUACGAGGU,-4.31 ± 0.3,-1.59 ± 0.17
UAAAAGCAAUAUUACGAUAG,-0.934 ± 0.078,-0.765 ± 0.088
UAAAAGCAAUAUUACGAUUA,0.154 ± 0.073,0.0591 ± 0.088
UAAAAGCAAUAUUACGCAGU,-2.66 ± 0.16,-1.3 ± 0.13

Sequence,self-splicing fitness (ln) (30 °C),self-splicing fitness (ln) (37 °C)
UAAAAGCAAUAUUACGCGAC,-3.73 ± 0.33,-2.64 ± 0.24
UAAAAGCAAUAUUACGCGCA,-0.512 ± 0.084,0.752 ± 0.13
UAAAAGCAAUAUUACGCGGA,-1.8 ± 0.08,-0.32 ± 0.082
UAAAAGCAAUAUUACGCGGU,-3.58 ± 0.29,-2.34 ± 0.27
UAAAAGCAAUAUUACGCUGG,-1.46 ± 0.13,-1.65 ± 0.17
UAAAAGCAAUAUUACGGCUG,0.0596 ± 0.093,0.0696 ± 0.12
UAAAAGCAAUAUUACGGCUU,-0.922 ± 0.088,-0.468 ± 0.11
UAAAAGCAAUAUUACGGGAG,-2.66 ± 0.14,-1.25 ± 0.11
UAAAAGCAAUAUUACGGUUC,-3.1 ± 0.17,-2.42 ± 0.2
UAAAAGCAAUAUUACGUAAA,-1.34 ± 0.077,-1.1 ± 0.09
UAAAAGCAAUAUUACGUAGG,-2 ± 0.083,-1.22 ± 0.11
UAAAAGCAAUAUUACGUAUG,-1.07 ± 0.078,-0.324 ± 0.095
UAAAAGCAAUAUUACGUCAA,-1.57 ± 0.11,-1.4 ± 0.098
UAAAAGCAAUAUUACGUCUU,-0.765 ± 0.058,-0.487 ± 0.076
UAAAAGCAAUAUUACGUGGC,-3.46 ± 0.2,-2.74 ± 0.2
UAAAAGCAAUAUUACGUUCG,-0.052 ± 0.085,-0.0686 ± 0.11
UAACAGCAAUAUUACGAAAA,-3.2 ± 0.21,-1.18 ± 0.15
UAACAGCAAUAUUACGAAUU,-3.02 ± 0.13,-1.86 ± 0.18
UAACAGCAAUAUUACGACGC,-2.37 ± 0.12,-1.76 ± 0.16
UAACAGCAAUAUUACGACGG,-1.27 ± 0.085,-0.26 ± 0.11
UAACAGCAAUAUUACGAGGU,-4.14 ± 0.23,-2.58 ± 0.23
UAACAGCAAUAUUACGAGUG,-0.621 ± 0.038,-0.34 ± 0.056
UAACAGCAAUAUUACGAUGG,-1.82 ± 0.087,-0.665 ± 0.1
UAACAGCAAUAUUACGCAAA,-3.11 ± 0.19,-2.3 ± 0.12
UAACAGCAAUAUUACGCCCA,-0.674 ± 0.12,0.423 ± 0.15

Sequence,self-splicing fitness (ln) (30 °C),self-splicing fitness (ln) (37 °C)
UAACAGCAAUAUUACGCGCA,-0.471 ± 0.078,0.0314 ± 0.12
UAACAGCAAUAUUACGCGCU,-1.93 ± 0.096,-0.612 ± 0.11
UAACAGCAAUAUUACGCUCA,-0.26 ± 0.091,0.174 ± 0.13
UAACAGCAAUAUUACGCUUA,-0.77 ± 0.071,0.122 ± 0.1
UAACAGCAAUAUUACGGAUU,-3.02 ± 0.12,-0.666 ± 0.094
UAACAGCAAUAUUACGGCCC,-2.08 ± 0.35,
UAACAGCAAUAUUACGGGUA,-0.895 ± 0.061,0.0689 ± 0.074
UAACAGCAAUAUUACGGGUC,-3.89 ± 0.17,-2.62 ± 0.2
UAACAGCAAUAUUACGGUCA,-0.282 ± 0.073,0.714 ± 0.085
UAACAGCAAUAUUACGUACC,-0.513 ± 0.19,-1.7 ± 0.24
UAACAGCAAUAUUACGUAUU,-3.38 ± 0.14,-1.94 ± 0.18
UAACAGCAAUAUUACGUGAA,-1.61 ± 0.065,-0.749 ± 0.083
UAACAGCAAUAUUACGUGAG,-0.729 ± 0.046,-0.471 ± 0.071
UAAGAGCAAUAUUACGAGUG,-3.74 ± 0.23,-1.16 ± 0.22
UAAGAGCAAUAUUACGAUCA,-2.23 ± 0.29,-0.554 ± 0.19
UAAGAGCAAUAUUACGCCAU,-2.59 ± 0.46,-1.46 ± 0.38
UAAGAGCAAUAUUACGCCGA,-2.94 ± 0.47,
UAAGAGCAAUAUUACGCUUA,-3.19 ± 0.32,-2.63 ± 0.35
UAAGAGCAAUAUUACGCUUG,-2.66 ± 0.23,-1.38 ± 0.18
UAAGAGCAAUAUUACGGACG,-1.89 ± 0.2,-1.67 ± 0.26
UAAGAGCAAUAUUACGGAGG,-3.41 ± 0.32,-1.95 ± 0.46
UAAGAGCAAUAUUACGGCUC,-1.82 ± 0.26,-1.32 ± 0.32
